The text below walks through data of the nanobody polyreactivity screen of Harvey et al. (2022).

The nature of the data set: yeast display, Sf9 membrane polyspecificity reagent, FACS + sequencing; frameworks hold sequencing errors. A digest of the protocol: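 Nanobodies from a synthetic yeast display library (Saccharomyces cerevisiae BJ5465), induced 36–48 hours with galactose, were stained 1 hour at 4 °C with 10% biotinylated, detergent-solubilized Sf9 membrane reagent, enriched on streptavidin microbeads, then FACS-sorted. Anti-HA (expression) and streptavidin (reagent binding) fluorescence set low and high (top ~1%) gates. Polyreactivity labels come from the gate of origin. Genes were colony-PCR amplified, MiSeq 2 × 250 sequenced and filtered by CDR length.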
Regarding “QVQLVESGGGLVQAGGSLRLSCAASGRTSWVNAMGWYRQAPGKERELVAAIVSGGTTKYADSVKGRFTISRDNAKNTVYLQMNSMKPEDTAVYYCAAALGLGGQKTRRYEYWGQGTQVTVSS”, the “polyreactivity (PSR sort gate)” value is given as “high polyreactivity”.
For the sequence “QVQLVESGGGLVQAGGSLRLSCAASGRTSWYTMGWYRQAPGKERELVAAISGSGGITYYADSVKGRFTISRDNAKNTVYLQMNSLKPEDTAVYYCNALRPRSLTEMYYWGQGTQVTVSP”, the “polyreactivity (PSR sort gate)” value is given as “high polyreactivity”.
Take “QVQLVESGGGLVQAGGSLRLSCAASGRTSYGYAMGWYRQAPGKERELVAAITSSGGSTYYADSVKGRFTISRDNAKNTVYLEMNSLKPEDTAVYYCAASRVRYSYGYPYYYWGQGTQVTVSS”: the “polyreactivity (PSR sort gate)” value is listed as “high polyreactivity”.
As to “QVQLVESGGGLVQAGGSLRLSCAASGRTSYTNAMGWYRQAPGKERELVAAINYSGGSTYYADSVKGRFTISRDNAKNTVYLQMNSLKPEDIAVYYCAAERYYWYTEMGYWGQGTQGTVSS”, the “polyreactivity (PSR sort gate)” value was “high polyreactivity”.
In the case of “QVQLVESGGGLVQAGGSLRLSCAASGRTSYYAMGWYRQAPGKERELVAAINSGDSTTYADSVKGRFTISRDNAKNTVYLQMNSLKPEDTAVYYCATALYDWYSLEFDYWGQGTQVTVSS”, the “polyreactivity (PSR sort gate)” value was “low polyreactivity”.
Consider “QVQLVESGGGLVQAGGSLRLSCAASGRTTWIYAMGWYRQAPGKERELVAVISKRGGNTYYADSVKGRFTISRDNAKNTVYLQMNSLKPADTAVYYCAAAGVYGSYDYWGQGTQVTVSS”, for which the “polyreactivity (PSR sort gate)” value is “high polyreactivity”.
As to “QVQLVESGGGLVQAGGSLRLSCAASGRTVSFYDMGWYRQAPGKERELVAAINSGSSTYYADSVKGRCTISRDNANTTVYLQMNSLKPEDTAVYYCADEPYFWWQNEYWGQGTQVTVSS”, the “polyreactivity (PSR sort gate)” value is “high polyreactivity”.
Take “QVQLVESGGGLVQAGGSLRLSCAASGRTYGVYAMGWYRQAPGKERELVATITLSGGRTYYAHSVKGRFTISRDNAKNTVYLEMNSLKPEDSAVYYCNARFSYYYGFRASRLDYWGQGTQVNVSS”: the “polyreactivity (PSR sort gate)” value is listed as “high polyreactivity”.
To “QVQLVESGGGLVQAGGSLRLSCAASGRTYHGYAMGWYRQAPGKERELVARINWSDGRTYYADSVKGRFTISRDNAKNTVYLQMNSLKPEDTAVYYCAADKTVSYAPAWYYYWGQGTQVNVSS” belongs “low polyreactivity”; to “QVQLVESGGGLVQAGGSLRLSCAASGRTYQANTMGWYRQAPVKEREFVAAISTSVGSTYYADSVKGRFTISRDNAKNTVYLQMKSLKPEDTALFYCAKASQSWGRDDYYYWGQGTQVTVSS”, “low polyreactivity”.
To “QVQLVESGGGLVQAGGSLRLSCAASGRTYVDYAMGWYRQAPGKEREFDAAITWSGGSTYYADSVKGRFTISRDYAKNTVYLQMTSLKPEDTEVYYCNRDTNVGVLNYKFYDGPERDYWGQGTQVTVSS” belongs “low polyreactivity”; to “QVQLVESGGGLVQAGGSLRLSCAASGRTYVSYAMGWYRQAPGKERELVATITGSTGGTYYADSVKGRFTISRDHAKNTVYLQMNSLKPEDTAVYYCNKDYYYNPGNVASGYDYWGQGTQVTVSS”, “low polyreactivity”.
Regarding “QVQLVESGGGLVQAGGSLRLSCAASGRTYWHNTMGWYRQAPGKERELVAAINGGGGSTYYADSVKGRFTISRDNAKNTVYLQMNSLKPEDTAVYYCSARQGVVKGGRGYGYWGQGTQVTVSS”, the “polyreactivity (PSR sort gate)” value is given as “high polyreactivity”.
Regarding “QVQLVESGGGLVQAGGSLRLSCAASGRTYYHYTMGWYRQAPGKERDLVAAITSGGSTYYADSVKGRFTMSRDNAKITVYVQMNSLKPEDTAVYYCARVRPLYHYSRYDYWGQGTQVTVSS”, the “polyreactivity (PSR sort gate)” value was “high polyreactivity”.
For the sequence “QVQLVESGGGLVQAGGSLRLSCAASGRYFGYNAMGWYRQAPGKERELVAAITGSGGSTYYADSVKGRFTISLDNAKHTVYLQIISLKPEDTAVYYCAADRFYHSAEYDYWGQGTQVTVSS”, the “polyreactivity (PSR sort gate)” value was “low polyreactivity”.
To “QVQLVESGGGLVQAGGSLRLSCAASGSALYAMGWYRQAPGKEMELVADISRRGGSTFYADSVKGRFTISRDKAKNTVYLQMNSLKPEDTAVYYCAAEFITYHGDDHYYWGQGTQVTVSS” belongs “low polyreactivity”.
The entry for “QVQLVESGGGLVQAGGSLRLSCAASGSFFHDYSMGWYRQAPGKERELVAAIRWSGGSTYYADSVKGRFTISRDNAKNTVYVQMNSLKPEDTAVYYCNAVTFGRDNVQLVKFGYWGQGTQVTVSS” is “low polyreactivity”; for “QVQLVESGGGLVQAGGSLRLSCAASGSIARNAMGWYRQAPGKERELVATISSGGGTYYADSVKGRFTISRDNAKNTVYLQMHSLKPEDTAVYYCAADGWEVPWPAIWDSLYEYWGQGTQVTVSS” it is “high polyreactivity”; for “QVQLVESGGGLVQAGGSLRLSCAASGSICGRYAMGWYRQAPGKDRELVAAIRWRSGSTYYADSVKGRFTISRDNAKNSVYLHMNSLKPEDTAVYYCAVQRSYVGPRQYNYWGQGTQVTVSS” it is “high polyreactivity”.
Regarding “QVQLVESGGGLVQAGGSLRLSCAASGSICWIYAMGWYRQAPGKERELVAAINVGGGSTYYADSVKGRFTISRDNAKNTVYLQMNSLKPEDTAVYYCAKGYQSPYKSQGYEYDYWGQGTQVTVSS”, the “polyreactivity (PSR sort gate)” value is “low polyreactivity”.
With “QVQLVESGGGLVQAGGSLRLSCAASGSIDNIYAMGWYRQAPGKERELVATITGIADSTYYADSVKGRFTISRDNAKNTVFLQMNSLKPEDTAVYYCAADKYVAEYDYWGQGTQVTVSS”, the “polyreactivity (PSR sort gate)” value was “low polyreactivity”.
Take “QVQLVESGGGLVQAGGSLRLSCAASGSIFAAYAMGWYRQAPGKERELVAAISDRGGSTYYADSVKGRFTISRDNAKNTVYLQMNSLKPEDTAVYYCATSVYDVRGGPFYYWGQGTQVTVSS”: the “polyreactivity (PSR sort gate)” value is “high polyreactivity”.
To “QVQLVESGGGLVQAGGSLRLSCAASGSIFADNAMGWYRQAPGKERELVAAITRGGSTYYADSVKGRFTISRDNAKNTVYLQMNSLKPEDTAVYYCAAGTTTYSVNEVPVREGYDYWGQGTQVTVSS” belongs “low polyreactivity”; to “QVQLVESGGGLVQAGGSLRLSCAASGSIFADYAMGWYRQAPGKERELVAAISYNGDSTYYADSVKGRFTISRDNAKNTVYLQMNSLKPEDTAVYYCNAAARRYTSVFYTSGYTFDYWGQGTQVTVSS”, “low polyreactivity”.
Regarding “QVQLVESGGGLVQAGGSLRLSCAASGSIFADYAMGWYRQAPGKERELVAAITGSGGRTYYADSVKGRFTISRDNAKNTVYLQMNSLKPEDTAVYYCAAEGTTWYYDMDYWGQGTQVTVSS”, the “polyreactivity (PSR sort gate)” value was “low polyreactivity”.
The entry for “QVQLVESGGGLVQAGGSLRLSCAASGSIFADYAMGWYRQAPGKERELVAVISRRGGTTYYADSVKGRFTISRDNAKNTVYLQMNSLKTEDTAVYYCAARRSFNEYDYWGQGSQVTVSS” is “high polyreactivity”; for “QVQLVESGGGLVQAGGSLRLSCAASGSIFADYTMGCYRQAPGKERELVAAITGGGGRTYYADSVKGRFTISRDNAKNTVYLQMNSLKPEDTAVYYCAADFHDDHTSFDYWGQGTQVTVSS” it is “low polyreactivity”.
“QVQLVESGGGLVQAGGSLRLSCAASGSIFADYTMGWYRQAPGKERELVAAISSDDSTYYADSVKGRFTISRDNAKNTVYLQMNSLKPEDTAVYYCNADGSIGPEEYWGQGTQVTVSS”: the “polyreactivity (PSR sort gate)” value was “low polyreactivity”.
For the sequence “QVQLVESGGGLVQAGGSLRLSCAASGSIFADYVMGWYRQAPGKERELVAAITRRGRTYYADSVKGRFTISRDNAKNTVYLQMNSLIPEDTAVYYCAKVASGKIDSWGQGTQVTVSS”, the “polyreactivity (PSR sort gate)” value was “low polyreactivity”.
Regarding “QVQLVESGGGLVQAGGSLRLSCAASGSIFAFYAMGWYRQAPGKERELVAVISVSDGSTYYADSVKGRFTISRDNAKNTVYLQMKSLKAEDTAVYYCAATPRGSYGYYYWGQGTQVTVSS”, the “polyreactivity (PSR sort gate)” value is on record as “low polyreactivity”.
As to “QVQLVESGGGLVQAGGSLRLSCAASGSIFAGNAMGWYRQAPGRERELVAGITFGDDSTYYADSVKGRFTISRDNAKNTVYLQMNSLKPEDTAVYYCATDMHPYNYYFYHYWVDAAYDYWGQGTQVTVSS”, the “polyreactivity (PSR sort gate)” value is given as “low polyreactivity”.
To “QVQLVESGGGLVQAGGSLRLSCAASGSIFAGNTMGWYRQAPGKERELVARMTRAGSTYYADSVKGRFTITRDNAKNTVYLQMNSLKPEDTAVYYCASGPTGSLYRYYYWGQGSQVTVSS” belongs “high polyreactivity”; to “QVQLVESGGGLVQAGGSLRLSCAASGSIFAGYAMGWYRQAPGKERELVATITSGGSTNYADSVKGRFTISRDNAKNTVYFHMNSLKPEVTAVYYCAADVEDSIPSSYTGGEYDYWGQCTQVTVSS”, “low polyreactivity”.
In the case of “QVQLVESGGGLVQAGGSLRLSCAASGSIFAINAMGWYRQAPGKERELVARISWSGGRTYYADSVKVRFTISRDNAKNTVYLQMNSLKPEDTAVYYCAKRYYKSLNRDEFDSWGQGTQGTVSS”, the “polyreactivity (PSR sort gate)” value was “high polyreactivity”.
Regarding “QVQLVESGGGLVQAGGSLRLSCAASGSIFAKNAMGWYRQAPGKERELVAAITFIGGDTYYADSVKGRFTISRDNAKNTVYLQMNSLKPEDTAVFYCNRALLVTSIYPYLFGSGWYDYWGQGTQVTVSS”, the “polyreactivity (PSR sort gate)” value was “low polyreactivity”.
With “QVQLVESGGGLVQAGGSLRLSCAASGSIFAKNAMGWYRQAPGKERELVAGIDFSGGSTYYADSVKGRFTLSRDNAKNTVYLQMNSLKPEDTAVYYCAADWAYKYELDYWGQGTQLTVSS”, the “polyreactivity (PSR sort gate)” value was “low polyreactivity”.
As for “QVQLVESGGGLVQAGGSLRLSCAASGSIFAKYAMGWYRQAPGKERELVAAISSGGSTYYADSVKGRFTISRDNAKNTVYLQMNSLKPEDTAVYYCNKPYGKETRYTFKVWYEYNYWGQGTQVTVSS”, the “polyreactivity (PSR sort gate)” value was “low polyreactivity”.
To “QVQLVESGGGLVQAGGSLRLSCAASGSIFANAMGWYRQAPGKEREVVAAISFSGGRTFYADSVKGRFTISRDNAKNTVYLQMNSLKPEDTAVYYCAKGKKSSRSGIYNYWGQGTQVTVSS” belongs “high polyreactivity”; to “QVQLVESGGGLVQAGGSLRLSCAASGSIFANNGMGWYRQAPGKERELVARISKRGGSTYYADSVKGRFTFSRDNAKNTVYLQMNSLKPEDTAVYYCNVRSWWGYTGPYDYWGQGTQVTVSS”, “high polyreactivity”.
“QVQLVESGGGLVQAGGSLRLSCAASGSIFANYAMGWYRQAPGKERELVAAISRGGGTTYYADSVKGRFTISRDNAKNTVYLQMNSLKPEDTAVYYCAAARRYATQFHYDSWGQGTQVTVSS”: the “polyreactivity (PSR sort gate)” value is on record as “high polyreactivity”.
